From patent CN113173995A (SHANGHAI PUBLIC HEALTH CLINICAL CT, dated 2021)

Key:
Test in all cases: cell-based or functional assay
SARS-CoV-2 S蛋白突变株F342L = SARS-CoV-2 S蛋白突变株F342L (SARS-CoV-2, UniProt P0DTC2 14-1273)
SARS-CoV-2 S蛋白突变株T376A = SARS-CoV-2 S蛋白突变株T376A (SARS-CoV-2, UniProt P0DTC2 14-1273)
SARS-CoV-2 S蛋白突变株E309D = SARS-CoV-2 S蛋白突变株E309D (SARS-CoV-2, UniProt P0DTC2 14-1273)
SARS-CoV-2 S蛋白突变株P491A = SARS-CoV-2 S蛋白突变株P491A (SARS-CoV-2, UniProt P0DTC2 14-1273)
SARS-CoV-2 S蛋白突变株A372T = SARS-CoV-2 S蛋白突变株A372T (SARS-CoV-2, UniProt P0DTC2 14-1273)

Measured: 假病毒中和 IC50 (Huh-7细胞, 荧光素酶)

B1: 全人源新型冠状病毒单抗REGN10989 (antibody, V domains shown)
VH: QVQLVQSGAEVKKPGASVKVSCKASGYIFTGYYMHWVRQAPGQGLEWMGWINPNSGGANYAQKFQGRVTLTRDTSITTVYMELSRLRFDDTAVYYCARGSRYDWNQNNWFDPWGQGTLVTVSS
VL: QSALTQPASVSGSPGQSITISCTGTSSDVGTYNYVSWYQQHPGKAPKLMIFDVSNRPSGVSDRFSGSKSGNTASLTISGLQAEDEADYYCSSFTTSSTVVFGGGTKLTVL
> 50 µg/mL: SARS-CoV-2 S蛋白突变株F342L | SARS-CoV-2 S蛋白突变株T376A | SARS-CoV-2 S蛋白突变株E309D | SARS-CoV-2 S蛋白突变株P491A | SARS-CoV-2 S蛋白突变株A372T
